Measurements as given in US20120003244A1 (published 2012).

Target: T1, c-myc-tagged wild-type human APCDD1 (human, UniProt Q8J025 27-514, limits assumed)
T1 construct: Expressed from pCXN2.1 in HEK293T cells; also called c-myc-tagged APCDD1; not shown: C-terminal c-myc tag
Assay: immunoprecipitation with anti-c-myc antibody from co-transfected HEK293T cells, western blot with anti-HA
From the text: To examine the 130 KDa fragment, we overexpressed both HA-tagged and c-myc-tagged APCDD1 in HEK293T cells, and performed immunoprecipitation using an anti-c-myc antibody, which was followed by western blot with an anti-HA antibody. […] By contrast, only a faint fragment, 52 KDa in size, was detected in total cell lysate of the L9R mutant construct-transfected cells (FIG. 3C; lane 2, top panel). In addition, a 65 KDa fragment was detected in the medium of the wild-type and the control L9V mutant APCDD1 construct-transfected cells, while no fragment in the medium of the L9R mutant construct-transfected cells (FIG. 3C; lanes 1-3, bottom panel).
Immunoprecipitation. Expression plasmids of HA-tagged APCDD1 and c-myc-tagged APCDD1 (4 μg each) were co-transfected into HEK293T cells as described above. 48 h after the transfection, the cells were harvested and homogenized in lysis buffer (50 mM Tris-HCl (pH 8.0), 150 mM NaCl, 0.5% NP40, and 1× Complete Mini Protease Inhibitor Cocktail). Total cell lysates were collected by centrifugation at 14,000 rpm for 20 min at 4° C. The samples were incubated with 0.3 μg of normal rabbit IgG (Santa Cruz Biotechnology) and 10 μl of protein A/G plus agarose (Santa Cruz) for 30 min at 4° C., and centrifuged at 10,000 rpm for 1 min at 4° C. […]

B1: C-terminal HA-tagged wild-type human APCDD1 (SWAMP-HA; pCXN2.1-Wt-SWAMP-HA) (receptor)
chain: not shown
notes: Expressed from pCXN2.1 in HEK293T cells; also called HA-tagged APCDD1; HA-tagged SWAMP; not shown: C-terminal HA (hemagglutinin) tag
binding result: binds
